The values that follow come from patent US20060252140A1.

For the assay, the target named is hyperactive SB transposase mutant HSB5. Put plainly: cell-based or functional assay.

Regarding E2C/SB-5 fusion protein, the integration frequency against cells containing the E2C/SB-5 fusion protein without the limiting amount of HSB5 (142 colonies) was found to be 4 fold and the integration frequency against cells expressing the same limiting amount of HSB5 transposase alone (58 colonies) was 10 fold.
